Test results published in PMC9405023, “NRF2 Regulates Cystathionine Gamma-Lyase Expression and Activity in Primary Airway Epithelial Cells Infected with Respiratory Syncytial Virus”.

Target: T1, recombinant NRF2 (rNRF2) (UniProt Q16236 1-605)
T1 sequence: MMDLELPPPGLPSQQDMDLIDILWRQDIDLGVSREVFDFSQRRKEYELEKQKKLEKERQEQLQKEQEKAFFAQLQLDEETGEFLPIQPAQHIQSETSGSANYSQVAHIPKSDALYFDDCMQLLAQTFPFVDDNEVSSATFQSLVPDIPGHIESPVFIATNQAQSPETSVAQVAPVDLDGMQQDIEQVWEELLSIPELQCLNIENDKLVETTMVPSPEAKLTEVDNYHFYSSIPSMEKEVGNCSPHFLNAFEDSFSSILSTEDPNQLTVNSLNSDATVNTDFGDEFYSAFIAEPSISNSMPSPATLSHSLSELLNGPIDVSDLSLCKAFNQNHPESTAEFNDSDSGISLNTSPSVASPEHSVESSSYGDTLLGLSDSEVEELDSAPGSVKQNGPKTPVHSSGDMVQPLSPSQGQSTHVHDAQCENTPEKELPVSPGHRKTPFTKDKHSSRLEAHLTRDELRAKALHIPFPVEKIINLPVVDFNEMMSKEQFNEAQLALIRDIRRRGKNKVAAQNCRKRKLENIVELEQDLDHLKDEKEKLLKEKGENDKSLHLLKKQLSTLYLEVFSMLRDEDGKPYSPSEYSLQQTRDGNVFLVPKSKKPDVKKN
Assay: EMSA; C1 and C2 complexes; 10 mM Tris-HCl pH 8.0, 50 mM KCl, 50 mM NaCl, 1 mM MgCl2, 1 mM EDTA, 5 mM DTT, 2.5% glycerol, 0.3 ug poly dI-dC, 15 fmol probe, 6-8 ug nuclear extract, 10 uL, 15 min, room temperature
Conditions: protein: recombinant; label: 32P (probe); blunt

B1: -156/-120 CSE wild type (WT) (dsDNA)
DNA 1: CGGTCGCGGTGACGTTTCAGGCAACGCCTCTGCTGT
DNA 2: ACAGCAGAGGCGTTGCCTGAAACGTCACCGCGACCG
Question: Does B1 bind?
Answer: Result: binds
